The assay concerns the target T33-51 protein cage subunit B. In words: native MS; SEC-purified co-expressed cage, 2 uM in 200 mM ammonium acetate pH 7.4; Q Exactive UHMR. Particulars: scale: copies of A with 12 copies of B in the cage.

Consider “T33-51 protein cage subunit A (designed binder)”, for which the stoichiometry N was determined as 11.

The values are drawn from paper doi:10.1101/2023.11.08.566319.
